According to US20240352134A1 (NANJING IMMUNOPHAGE BIOTECH, published 2024):
Where a chain is given by its changes, count along the chain named.

B1: 3F11hz2 (antibody, V domains shown)
VH: EVQLVESGGGLVQPGGSLKLSCAASGFSFNTYAMNWVRQASGKGLEWVGRIRSKSNYYATYYAASVKGRFTISRDDSKNTAYLQMNSLKTEDTAVYYCVRGRELGDYYAMDYWGQGTLVTVSS
VL: DIVMTQSPLSLPVTPGEPASISCRSSKSLLHSNGNTYLDWFLQKPGQSPQLLIYRMSNRASGVPDRFSGSGSGTDFTLKISRVEAEDVGVYYCMQHLEYPFTFGQGTKLEIK
notes: Humanized variant of 3F11
B2: 3O20hz3 (antibody, V domains shown)
VH: EVQLVESGGGLVQPGGSLKLSCATSGFSFNAYAMHWVRQASGKGLEWVGRIRSKSNNYATAYAASVKGRFTISRDDSKTTLYLQMNSLKTEDTAVYYCVRGGYHGNSAYFDVWGQGTLVTVSS
VL: B1 VL with N33Q, M94L
notes: Humanized variant of 3O20
B3: 3O20hz1 (antibody, V domains shown)
VH: B2 VH with T24A, T79N, L81A
VL: B1 VL with F41Y, M94L
notes: Humanized variant of 3O20
B4: 1G17hz2 (antibody, V domains shown)
VH: QVQLVQSGAEVKKPGASVKVSCKASGYTFADYEMHWVRQAPGQGLEWIGIIDPETGRTSYAQKFQGRATLTADRSTSTAYMELSSLRSEDTAVYYCTRRAYWGGWGQGTLVTVSS
VL: DVVMTQSPLSLPVTLGQPASISCRSSQSLVHSSGNTYLNWYQQRPGQSPRLLIYKVSNRDSGVPDRFSGSGSGTDFTLKISRVEAEDVGVYFCSQSTHVPYTFGQGTKLEIK
notes: Humanized variant of 1G17
B5: 3F11hz0 (antibody, V domains shown)
VH: EVQLVESGGGLVQPKGSLKLSCAASGFSFNTYAMNWVRQAPGKGLEWVARIRSKSNYYATYYADSVKDRFTISRDDSESMLYLQMNNLKTEDTAMYYCVRGRELGDYYAMDYWGQGTSVTVSS
VL: DIVMTQAAPSVPVTPGESVSISCRSSKSLLHSNGNTYLYWFLQRPGQSPQLLIYRMSNLASGVPNRFSGSGSGTAFTLRISRVEAEDVGVYYCMQHLEYPFTFGSGTKLEIK
notes: same VH and VL as mouse 3F11
B6: 3O20hz0 (antibody, V domains shown)
VH: B2 VH with G15K, H35N, S41P, A61Y, A64D, T80I, S87T, V95I, Q115T, L118S
VL: B5 VL with N65D, M94L
notes: same VH and VL as mouse 3O20
B7: 1G17hz0 (antibody, V domains shown)
VH: QVQLQQSGAELVRPGASVTLSCKASGYTFADYEMHWVKQTPVLGLEWIGAIDPETGRTAYNQKFKFKATLTADRSSSTAYMELRSLTSEDSAVYYCTRRAYWGGWGQGTTLTVSS
VL: DVVMTQTPLSLPVSLGDQASISCRSSQSLVHSSGNTYLHWYLQKPGQSPKLLIYKVSNRFSGVPDRFSGSGSGTDFTLKISRVEAEDLGVYFCSQSTHVPYTFGGGTKLEIK
notes: same VH and VL as mouse 1G17
B8: 3F11hz1 (antibody, V domains shown)
VH: B1 VH with N35H, V99T
VL: B1 VL with F41Y
notes: Humanized variant of 3F11
B9: 101E4 (antibody, V domains shown)
VH: EVQLVESGGGLVQPKGSLKLSCAASGFSFNPYAMNWVRQGPGKGLEWVARIRSKSNNYATYYADSVKDRFTISRDDSENILYLQMNNLKTEDTAMYYCVRDYYGGRSSIGMDYWGHGTSVTVSS
VL: B5 VL with N65D, M94L, S105G, I111L
notes: Mouse hybridoma monoclonal antibody (SJL mice); detected with anti-mouse IgG
B10: 103G4 (antibody, V domains shown)
VH: B9 VH with Q13R, M34L, G40A, R100K, G105T, S107P, H116Q
VL: B5 VL with K27R, Q50H, N65D, S105A, I111L
notes: Mouse hybridoma monoclonal antibody
B11: 4M13 (antibody, V domains shown)
VH: B5 VH with I51M, Y57N, R102K, E103D, L104T, G105S, D106G, Y107S, T120S
VL: B5 VL with Q50H, N65D, R82K, A85T
notes: as for B10
B12: 3F11 (antibody, V domains shown)
VH: B5 VH
VL: B5 VL
notes: as for B10
B13: 2L15 (antibody, V domains shown)
VH: B5 VH with Y57N, D75A, R102K, E103D, L104I, G105S, D106V, Y107S
VL: B5 VL with L30Q, N65D, A85T
notes: as for B10
B14: 4D24 (antibody, V domains shown)
VH: EVQLVESGGGLVQPKGSLKLSCAASGFSFNPYAMNWVRQSPGKGLEWVARIRSKSNNYATYYADSVKDRFTISRDDSESMLYLQMNNLKTEDTAMYYCVRQGWVKRYFDVWGTGTTVTVSS
VL: GNVLTQSPAIMSASPGEKVTMTCSASSSGTYMHWYQQKSTTSPKLWIYDTSKLASGVPGRFSGSGSGNSYSLTISSMEAEDIATYYCFQGSGYPLTFGSGTKLEIK
notes: as for B10
B15: 1G17 (antibody, V domains shown)
VH: B7 VH
VL: B7 VL
notes: as for B10
B16: 3F6 (antibody, V domains shown)
VH: EVQFVESGGGLVQPKGSLKLSCAASGFSFNTYAMNWVRQAPGKGLEWVARIRTKSNNYATHYADSVKDRFIVSRDDSENILYLQMNNLKTEDTGMYYCVRGGNGIYGRNAMDNWGQGTSVTVSS
VL: B5 VL with T14S, N33S, N65D, S105G
notes: as for B10
B17: 4G19 (antibody, V domains shown)
VH: B16 VH with K67T, N79S, I80M, L81T, A110T
VL: B5 VL with A7T, T14S, N33S, N65D, S105G, K112Q
notes: as for B10
B18: 118H1 (antibody, V domains shown)
VH: B9 VH with G40A, V48I, T60A, N86K, K89I, G105T, S107P, H116R
VL: B5 VL with V3A, P12F, K27Q, Q47R, N65D, A75G, S105A, I111L
notes: Mouse hybridoma monoclonal antibody; also called 1181H1
B19: 84B4 (antibody, V domains shown)
VH: EVQLQQSGPVLVKPGASVKMSCKASGFTITDYYFNWVKQSHGKSLEWIGIINPYNGVARYKQKFKGKATLTVDKSSSTVYLEFSGLTSEDSAVYYCVRFVYGTTYDYAMDYWGQGTSVTVSS
VL: B7 VL with V3L, L29I, S33N, H39E, L42V, F92Y, S94F, S96G, T97S, Y101P
notes: as for B10
B20: 172E7 (antibody, V domains shown)
VH: EVQLQQSGPVLVKPGASVKMSCKASGYTFTDNYMNWMKQSHGKTLEWIGVINPYNGVTRYNQKFRDKATLTVDKSSSTAYMDLNSLTSEDSAVYYCSNSLSWGPGTSLTVSS
VL: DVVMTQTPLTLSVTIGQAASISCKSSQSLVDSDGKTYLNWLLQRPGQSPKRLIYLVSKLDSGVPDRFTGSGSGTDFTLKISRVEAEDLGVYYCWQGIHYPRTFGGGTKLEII
notes: as for B10
B21: 170G6 (antibody, V domains shown)
VH: B20 VH with M37V, T44S, D66G, V72A, Y80F, S107T
VL: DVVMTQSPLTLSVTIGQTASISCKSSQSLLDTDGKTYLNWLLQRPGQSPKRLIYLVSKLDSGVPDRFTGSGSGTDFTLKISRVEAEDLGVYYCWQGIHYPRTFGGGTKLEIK
notes: as for B10
B22: 2P15 (antibody, V domains shown)
VH: B5 VH with T31A, I51M, G101Q, R102T, E103Y, L104G, G105S, D106K, Y107D
VL: B7 VL with S33N, L38F, Y101F, G105S
notes: as for B10
B23: 3C11 (antibody, V domains shown)
VH: EFQLQQSGPELVKPGASVKISCKTSGYSFTDYNINWVKQSNGKSLEWIGLINPNHGTTKSNQKFKGKATLTVDQSSSTAYMQLSSLTSEDSAVYYCARHDYDGAYWGQGTLVTVSA
VL: B7 VL with V30I, S33N, V56I, H98R, V99A, Y101W
notes: as for B10
B24: 3O20 (antibody, V domains shown)
VH: B2 VH with G15K, H35N, S41P, A61Y, A64D, T80I, S87T, V95I, Q115T, L118S
VL: B5 VL with N65D, M94L
notes: as for B10

Target: T1, human CCR8 (human, UniProt P51685 1-355)
T1 construct: whole, on cells; also called hCCR8; C-C Motif Chemokine Receptor 8
Assay: FACS on human CCR8-expressing 293F cells

T1 sequence (P51685 whole entry): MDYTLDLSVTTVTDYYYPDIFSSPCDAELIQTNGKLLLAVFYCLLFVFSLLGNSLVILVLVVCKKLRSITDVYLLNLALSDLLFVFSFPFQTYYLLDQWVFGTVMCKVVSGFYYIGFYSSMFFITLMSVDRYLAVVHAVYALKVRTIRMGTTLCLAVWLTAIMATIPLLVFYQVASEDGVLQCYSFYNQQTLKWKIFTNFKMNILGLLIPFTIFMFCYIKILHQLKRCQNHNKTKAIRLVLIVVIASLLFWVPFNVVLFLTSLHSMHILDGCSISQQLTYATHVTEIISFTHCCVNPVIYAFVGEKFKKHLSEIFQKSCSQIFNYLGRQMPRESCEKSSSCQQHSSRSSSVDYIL

Binder | EC50
B1 | 98.5 nM
B2 | 241 nM
B3 | 508 nM
B4 | 333 nM
B5 | 0.309 nM
B6 | 0.185 nM
B7 | 0.451 nM

Target: T1, human CCR8
Assay: FACS on human CCR8-expressing 293F cells
Remark: another data set of the same source

Binder | binding result
B8 | binds

Target: T1, human CCR8
Assay: FACS on 293F-CCR8 cells
Method: The affinity of anti-CCR8 antibodies was evaluated by FACS. […] Affinity analyses were generally carried out as follows. […] The test antibodies were diluted with PBS/0.5 BSA (1:3 series dilution from 225 μg/mL to 0.00381 μg/mL). The transfected cells along with parent non-transfected cells were distributed into 96-well round-bottom polystyrene plates and incubated with the diluted antibodies on ice for 20-30 minutes. Next, the samples were washed with PBS/0.5 BSA and the cells were centrifuged. The pelleted cell samples were incubated with the second antibody of anti-mouse IgG-FITC-at 1:300 dilution in 100 μL PBS/0.5% BSA on ice for 30 minutes, and then washed with PBS/0.5% BSA, followed by pelleting the cells. The cell pellets were re-suspended in PBS/0.5% BSA for reading, and samples were analyzed using CYTOFLEX (Beckman).

Binder | EC50
B9 | 0.409 nM
B10 | 20.6 nM
B11 | 0.775 nM
B12 | 0.957 nM
B13 | 0.826 nM
B14 | 0.888 nM
B15 | 2.94 nM
B16 | 2.29 nM
B17 | 4.49 nM
B18 | 0.466 nM
B19 | 0.195 nM
B20 | 6.99 nM
B21 | 0.302 nM
B22 | 0.305 nM
B23 | 4.25 nM
B24 | 1.29 nM

Target: T1, human CCR8
Assay: cell-based or functional assay

Binder | Tango IC50
B9 | 0.27 nM
B10 | 0.83 nM
B11 | 0.47 nM
B12 | 0.27 nM
B13 | 1.23 nM
B14 | 0.67 nM
B15 | 1.82 nM
B16 | 0.51 nM
B17 | 2.61 nM
B18 | 1.43 nM
B19 | 1.86 nM
B20 | 2.01 nM
B21 | 0.33 nM
B22 | 1.87 nM
B23 | 4.08 nM
B24 | 0.45 nM
